Where “and” joins values, the source holds several entries; their conditions need not be identical. Equal values may be shown once.
Experiments:
[1] = target: T1, recombinant histidine-tagged canine interleukin-13 (cIL-13) (canine, UniProt Q9N0W9 19-131, N-linked glycans attached to asparagine residues at positions 38, 48, 56, and 71); assay: cell-based or functional assay
T1 sequence: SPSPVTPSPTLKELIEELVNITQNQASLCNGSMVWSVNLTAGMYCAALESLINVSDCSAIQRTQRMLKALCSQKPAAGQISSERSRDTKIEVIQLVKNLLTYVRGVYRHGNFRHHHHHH

[2] = target: T1, recombinant histidine-tagged canine …; assay: cell-based or functional assay; remark: listed apart in the source
[3] = target: T1, recombinant histidine-tagged canine …; assay: cell-based or functional assay; remark: listed apart in the source
[4] = target: T1, recombinant histidine-tagged canine …; assay: ELISA, cIL-13-coated plate
[5] = target: T1, recombinant histidine-tagged canine …; assay: ELISA, His-tagged cIL-13 on nickel-coated plate
Description: In one embodiment of the present disclosure, recombinant canine IL-13 (cIL-13) protein with a histidine tag was dispensed onto nickel-coated plates (Thermo Fisher, #15442) at 100 ng/100 μL per well and incubated at room temperature for 1 hour. The plates were then washed three times with 1×PBST, and serial dilutions of the chimeric antibodies in 1×PBS were added and incubated at room temperature for 1 hour to allow antigen-antibody binding. After three washes with 1×PBST, an HRP-conjugated secondary antibody that cross-reacts with canine antibodies was diluted 1:100 in casein buffer and added at 100 μL per well, followed by incubation at 37° C. for 30 minutes. The HRP-conjugated secondary antibody used may be Jackson ImmunoResearch, #115-036-071, and the casein buffer may be Thermo Fisher Scientific, #37528; however, these examples are not intended to limit the scope of the present disclosure. After another three washes with 1×PBST, TMB was added to initiate color development, and the reaction was terminated by the addition of an equal volume of 1.0 N sulfuric acid.

B1: 32A10-#20 mouse monoclonal antibody (antibody, V domains shown)
VH: EVQLQQSGPELVKPGASVKVSCKTSGYSFTDYPIYWVRQSHGESLEWIGYIDPYNGGTTYNQNFKDKATLTVDKSSSTAFMHLNSLTSEDSAVYFCATAVVATDVMENWGQGTSVTVSS
VL: DIVLTQSQKFMSTSVGDRVSITCKASQNVRNAVAWFQQKPGQSPKALIYLASNRYTGVPDHFTGSGSGTDFTLTISNVQSEDLADYFCLQHWNYPLTFGAGTKLELK
notes: also called Mouse 32A10; Parental antibody (Mouse 32A10)
inhibition of IL-13-dependent TF-1 cell proliferation, IC50 [1]: 2.9 to 4.2 nM | TF-1 cell proliferation inhibition IC50 (Average) [2]: 437 ng/ml and 2.91 nM | TF-1 cell proliferation inhibition IC50 (Test 1) [2]: 494 ng/ml and 3.29 nM | TF-1 cell proliferation inhibition IC50 (Test 2) [2]: 492 ng/ml and 3.28 nM | TF-1 cell proliferation inhibition IC50 (Test 3) [2]: 325 ng/ml and 2.17 nM | Inhibitory Activity on TF-1 Cell Proliferation IC50 [3]: 3.97 nM | EC50 [4]: 0.0694 µg/mL and 0.463 nM | EC50 [5]: 0.218 µg/mL and 1.45 nM

From patent publication US20260234238A1 (GEOVISTA, published 2026)
